We go through 1 molecule from patent publication US8586357B2, “Markers of definitive endoderm” (ViaCyte, Inc., priority 2003, dated 2013).

Common to all, as to type: cell-based, human
Assay [1] has as its system hESCs. Put plainly: Isolation of definitive endoderm cells by FACS using cell surface markers of Table 5 (Example 13). The following applies: 100, 50 or 25 ng/ml activin A; Example 13 written in present tense. How it is done:
Using methods, such as those described in the above Examples, hESCs are differentiated to produce definitive endoderm. In particular, to increase yield and purity of definitive endoderm in differentiating cell cultures, the serum concentration of the medium is controlled as follows: 0% FBS on day 1, 0.2% FBS on day 2 and 2.0% FBS on days 3-6. Differentiating cell populations are grown in the presence of 100 ng/ml, 50 ng/ml or 25 ng/ml activin A, whereas non-differentiating control populations are grown in the absence of activin A.
An appropriate amount of labeled antibody that binds to one of the markers listed above is added to a sample of each culture and labeling proceeds on ice. Cells are washed by adding PBS and pelleted. A second wash with buffer is completed then cells are resuspended. Secondary antibody (FITC conjugated secondary antibody is added and allowed to label for about 30 minutes followed by two washes in buffer as above. Cells are resuspended and analyzed and sorted using a FACS. Cells are collected directly into RLT lysis buffer for subsequent isolation of total RNA for gene expression analysis by real-time quantitative PCR.
For orientation: A flow cytometer gives signals particle by particle.

Assay [2] deals with hESCs. Put plainly: AFP antibody-labeled cell number by flow cytometry. Conditions: presence vs absence of activin A; FIGS. 9A-B. An excerpt: As a further evidence of the specificity of the SOX17^hi/AFP^lo/TM^lo/SPARC^lo marker profile as predictive of definitive endoderm, SOX17 and AFP gene expression was quantitatively compared to the relative number of antibody labeled cells.

Assay [3] has as its system hESCs. Put plainly: Immunocytochemistry: SOX17, AFP and TM antibody labeling of differentiating hESCs. The source says:
As described in detail herein, the SOX17 antibody was utilized to specifically examine effects of various treatments and differentiation procedures aimed at the production of SOX17 positive definitive endoderm cells. Other antibodies reactive to AFP, SPARC and Thrombomodulin were also employed to rule out the production of visceral and parietal endoderm (extra-embryonic endoderm).
As evidence that the SOX17 antibody is specific for human SOX17 protein and furthermore marks definitive endoderm, partially differentiated hESCs were co-labeled with SOX17 and AFP antibodies. […] However, AFP and SOX7 are not expressed in definitive endoderm cells at levels detectable by ICC, and thus, they be can employed as negative markers for bonifide definitive endoderm cells. It was shown that SOX17 antibody labels populations of cells that exist as discrete groupings of cells or are intermingled with AFP positive cells. […] Similarly, since parietal endoderm has also been reported to express SOX17, antibody co-labeling with SOX17 together with the parietal markers SPARC and/or Thrombomodulin (TM) can be used to identify the SOX17^+ cells which are parietal endoderm. As shown in FIGS. 6A-C, Thrombomodulin and SOX17 co-labelled parietal endoderm cells were produced by random differentiation of hES cells.
With the SOX17 antibody and Q-PCR tools described above we have explored a number of procedures capable of efficiently programming ESCs to become SOX17^hi/AFP^lo/SPARC/TM^lo definitive endoderm cells. We applied a variety of differentiation protocols aimed at increasing the number and proliferative capacity of these cells as measured at the population level by Q-PCR for SOX17 gene expression and at the level of individual cells by antibody labeling of SOX17 protein.
To determine the effect of TGFβ factor treatment at the individual cell level, a time course of TGFβ factor addition was examined using SOX17 antibody labeling. As previously shown in FIGS. 10A-F, there was a dramatic increase in the relative number of SOX17 labeled cells over time.
In these experiments, hESCs were differentiated by growing in RPMI medium (Invitrogen, Carlsbad, Calif.; cat#61870-036) supplemented with 0.5%, 2.0% or 10% FBS and either with or without 100 ng/mL activin A for 6 days. In addition, a gradient of FBS ranging from 0.5% to 2.0% over the first three days of differentiation was also used in conjunction with 100 ng/mL of activin A. After the 6 days, replicate samples were collected from each culture condition and analyzed for relative gene expression by real-time quantitative PCR. The remaining cells were fixed for immunofluorescent detection of SOX17 protein.

In assay [4] the test system is hESCs. Put plainly: CXCR4+ cell number by flow cytometry (FACS). The following applies: 0, 10 or 100 ng/mL; 7 days; 0.5%-2% FBS; FIGS. 30A-C. As to the method: hESCs were differentiated in RPMI media supplemented with 0.5%-2% FBS (increased from 0.5% to 1.0% to 2.0% over the first 3 days of differentiation) and either 0, 10, or 100 ng/mL of activin A. After 7 days of differentiation the cells were dissociated in PBS without Ca^2+/Mg^2+ containing 2% FBS and 2 mM (EDTA) for 5 minutes at room temperature. The cells were filtered through 35 um nylon filters, counted and pelleted. Pellets were resuspended in a small volume of 50% human serum/50% normal donkey serum and incubated for 2 minutes on ice to block non-specific antibody binding sites. To this, 1 uL of mouse anti-CXCR4 antibody (Abeam, cat# ab10403-100) was added per 50 uL (containing approximately 10^5 cells) and labeling proceeded for 45 minutes on ice. Cells were washed by adding 5 mL of PBS containing 2% human serum (buffer) and pelleted. A second wash with 5 mL of buffer was completed then cells were resuspended in 50 uL buffer per 10^5 cells. […] Cells were resuspended at 5×10^6 cells/mL in buffer and analyzed and sorted using a FACS Vantage (Beckton Dickenson) by the staff at the flow cytometry core facility (The Scripps Research Institute). Cells were collected directly into RLT lysis buffer (Qiagen) for subsequent isolation of total RNA for gene expression analysis by real-time quantitative PCR.

B1: Activin A: growth factor of the TGFβ superfamily, Nodal/Activin subgroup; definitive endoderm inducer (protein, UniProt P08476 311-426, looked up)
Inhibin beta A chain: GLECDGKVNICCKKQFFVSFKDIGWNDWIIAPSGYHANYCEGECPSHIAGTSGSSLSFHSTVINHYRMRGHSPFANLKSCCVPTKLRPMSMLYYDDGQNIIKKDIQNMIVEECGCS
For B1, the “number of cells positive for the Table 4 markers as dose is increased” value in the assay with hESCs [1] is reported as “increase significantly”. Moreover, the “decrease in AFP antibody-labeled cell number” value in the assay with hESCs [2] was “approximately 7 fold”. Besides, the “difference in SOX17 antibody-labeled cell number, Activin A vs retinoic acid treated hESCs” value in the assay on hESCs [3] (FIG. 7B) worked out at 10 fold. Moreover, the “SOX17+ cell number, dose response” value with hESCs [3] (FIG. 22) was “dose-dependent increase”. In the assay with hESCs [3] (high dose activin A, FBS at 10% (v/v), 6 days), the “frequency of SOX17+ cells” value was “much lower frequency”. Also, the “distribution of SOX17+ cells in the culture” value in the assay on hESCs [3] (high dose activin A, low FBS concentration (0.5%-2.0%), 6 days) is on record as “ubiquitously distributed”. For the same molecule, the “number of CXCR4+ cells as dose is increased” value in the assay on hESCs [4] was “increase dramatically”.
